Experimental data: US20220273789A1

target: human IgG (human); assay: BLI Octet, construct on Ni-NTA sensor, hIgG in solution

Substance | Kd [nM] | Response (nm) | koff [s⁻¹] | kon [M⁻¹ s⁻¹]
HSV2-gE_R320L_gI (from UniProt P89475 21-416; P06764 21-256) (receptor) | 291 | 0.785 | 0.00389 | 13400
HSV2-gE_A248K F322A_gI (from UniProt P89475 21-416; P06764 21-256) (receptor) | 408 | 0.481 | 0.00397 | 9720
HSV2-gE_R320P_gI (from UniProt P89475 21-416; P06764 21-256) (receptor) | 1650 | 0.267 | 0.00235 | 1420
HSV2-gE_H245S_gI (from UniProt P89475 21-416; P06764 21-256) (receptor) | 866 | 0.46 | 0.00658 | 7600
HSV2-gE_R314P_gI (from UniProt P89475 21-416; P06764 21-256) (receptor) | 443 | 0.557 | 0.00474 | 10700
HSV2-gE_A246W P317F_gI (from UniProt P89475 21-416; P06764 21-256) (receptor) | < 0.001 | 0.101 | < 1e-07 | 6180
HSV2-gE_R314A_gI (from UniProt P89475 21-416; P06764 21-256) (receptor) | 468 | 0.629 | 0.00557 | 11900
HSV2-gE_R314K_gI (from UniProt P89475 21-416; P06764 21-256) (receptor) | 583 | 0.461 | 0.00549 | 9420
HSV2-gE_F322T_gI (from UniProt P89475 21-416; P06764 21-256) (receptor) | 179 | 0.762 | 0.00269 | 15000
HSV2-gE_S338L_gI (from UniProt P89475 21-416; P06764 21-256) (receptor) | 439 | 0.467 | 0.00223 | 5080
HSV2-gE_R314Y_gI (from UniProt P89475 21-416; P06764 21-256) (receptor) | 600 | 0.385 | 0.00441 | 7350
HSV2-gE_P318R_gI (from UniProt P89475 21-416; P06764 21-256) (receptor) | 794 | 0.151 | 0.000756 | 952
HSV2-gE_A248T F322I_gI (from UniProt P89475 21-416; P06764 21-256) (receptor) | 8850 | 0.184 | 0.00486 | 549
HSV2-gE_S338G_gI (from UniProt P89475 21-416; P06764 21-256) (receptor) | 339 | 0.562 | 0.00438 | 12900
HSV2-gE_A248K_gI (from UniProt P89475 21-416; P06764 21-256) (receptor) | 450 | 0.477 | 0.00499 | 11100
HSV2-gE_R314I_gI (from UniProt P89475 21-416; P06764 21-256) (receptor) | 658 | 0.446 | 0.00556 | 8450
HSV2-gE_H245I_gI (from UniProt P89475 21-416; P06764 21-256) (receptor) | 183 | 1.02 | 0.00301 | 16500
HSV2-gE_A246W P317K_gI (from UniProt P89475 21-416; P06764 21-256) (receptor) | < 0.001 | 0.071 | < 1e-07 | 6090
HSV2-gE_P318T_gI (from UniProt P89475 21-416; P06764 21-256) (receptor) | 14900 | 0.174 | 0.00711 | 478
HSV2-gE_F322A_gI (from UniProt P89475 21-416; P06764 21-256) (receptor) | 167 | 0.86 | 0.00273 | 16400
HSV2-gE_P317I_gI (from UniProt P89475 21-416; P06764 21-256) (receptor) | 1000 | 0.243 | 0.00382 | 3810
HSV2-gE_P317S_gI (from UniProt P89475 21-416; P06764 21-256) (receptor) | 255 | 0.669 | 0.00358 | 14000
HSV2-gE_H245R_gI (from UniProt P89475 21-416; P06764 21-256) (receptor) | 265 | 0.842 | 0.00416 | 15700
HSV2-gE_A248T V340R_gI (from UniProt P89475 21-416; P06764 21-256) (receptor) | < 0.001 | 0.183 | < 1e-07 | 5000
HSV2-gE_H245A P319L_gI (from UniProt P89475 21-416; P06764 21-256) (receptor) | 449 | 0.265 | 0.00273 | 6080

Substance | Kd [nM] | Response (nm) | koff [s⁻¹] | kon [M⁻¹ s⁻¹]
HSV2-gE_R320S_gI (from UniProt P89475 21-416; P06764 21-256) (receptor) | 1050 | 0.343 | 0.00547 | 5190
HSV2-gE_R314T_gI (from UniProt P89475 21-416; P06764 21-256) (receptor) | 575 | 0.417 | 0.0049 | 8530
HSV2-gE_R314D_gI (from UniProt P89475 21-416; P06764 21-256) (receptor) | 900 | 0.385 | 0.00583 | 6480
HSV2-gE_V340M_gI (from UniProt P89475 21-416; P06764 21-256) (receptor) | 278 | 0.621 | 0.00399 | 14300
HSV2-gE_P317G_gI (from UniProt P89475 21-416; P06764 21-256) (receptor) | 555 | 0.338 | 0.00429 | 7740
HSV2-gE_A248G F322A_gI (from UniProt P89475 21-416; P06764 21-256) (receptor) | 270 | 0.559 | 0.00352 | 13100
HSV2-gE_R320V_gI (from UniProt P89475 21-416; P06764 21-256) (receptor) | 469 | 0.52 | 0.00425 | 9060
HSV2-gE_H245V_gI (from UniProt P89475 21-416; P06764 21-256) (receptor) | 486 | 0.745 | 0.00573 | 11800
HSV2-gE_H245G R320T_gI (from UniProt P89475 21-416; P06764 21-256) (receptor) | 591 | 0.279 | 0.00319 | 5400
HSV2-gE_H245T_gI (from UniProt P89475 21-416; P06764 21-256) (receptor) | 813 | 0.493 | 0.00605 | 7450
HSV2-gE_A248T F322P_gI (from UniProt P89475 21-416; P06764 21-256) (receptor) | 1490 | 0.2 | 0.00426 | 2870
HSV2-gE_P317K_gI (from UniProt P89475 21-416; P06764 21-256) (receptor) | 374 | 0.13 | 0.00136 | 3640
HSV2-gE_R320A_gI (from UniProt P89475 21-416; P06764 21-256) (receptor) | 1500 | 0.295 | 0.00505 | 3360
HSV2-gE_A246W P317S_gI (from UniProt P89475 21-416; P06764 21-256) (receptor) | < 0.001 | 0.121 | < 1e-07 | 3600
HSV2-gE_F322N_gI (from UniProt P89475 21-416; P06764 21-256) (receptor) | 239 | 0.73 | 0.00313 | 13100
HSV2-gE_H245G P319G_gI (from UniProt P89475 21-416; P06764 21-256) (receptor) | 2010 | 0.157 | 0.00357 | 1780
HSV2-gE_A248G_gI (from UniProt P89475 21-416; P06764 21-256) (receptor) | 560 | 0.506 | 0.00551 | 9840
HSV2-gE_H245A P319G_gI (from UniProt P89475 21-416; P06764 21-256) (receptor) | 491 | 0.26 | 0.00391 | 7970
HSV2-gE_R314S_gI (from UniProt P89475 21-416; P06764 21-256) (receptor) | 406 | 0.585 | 0.00515 | 12700
HSV2-gE_F322P_gI (from UniProt P89475 21-416; P06764 21-256) (receptor) | 160 | 0.807 | 0.00223 | 13900
HSV2-gE_R320N_gI (from UniProt P89475 21-416; P06764 21-256) (receptor) | 828 | 0.379 | 0.00493 | 5950
HSV2-gE_H245K_gI (from UniProt P89475 21-416; P06764 21-256) (receptor) | 686 | 0.562 | 0.00614 | 8960
HSV2-gE_P317L_gI (from UniProt P89475 21-416; P06764 21-256) (receptor) | 5110 | 0.161 | 0.00181 | 354
HSV2-gE_H245G P319L_gI (from UniProt P89475 21-416; P06764 21-256) (receptor) | 327 | 0.361 | 0.00189 | 5760
